Measurements as given in patent US20230265151A1, “GIP/GLP1 CO-AGONIST COMPOUNDS” (priority 2020, published 2023).
Substitutions are numbered along the chain they refer to. *1 amine or outer side, *2 acyl side, *3 side chain or, on linkers, in order; H or OH if unused. Where no end group is shown, it is not given here. Side-chain parts run from the residue outwards. [ ]: non-standard residue; d: D form. The star is where a group is joined. Decanoyl(10-(4-HOOC-PhO)) = O=C(O)c1ccc(OCCCCCCCCCC(=O)*)cc1; αMePhe(2-F) = C[C@](N)(Cc1ccccc1F)C(=O)O; γGlu = O=C(O)[C@H](CCC(=O)[*:2])N[*:1]; C14 diacid = O=C(O)CCCCCCCCCCCCC(=O)*; αMeY = C[C@](N)(Cc1ccc(O)cc1)C(=O)O; αMeL = CC(C)C[C@](C)(N)C(=O)O; Orn = NCCC[C@H](N)C(=O)O; AEEA = NCCOCCOCC(=O)O; Aib = CC(C)(N)C(=O)O

B1: Example 331 (peptide)
peptide: YXEGTXTSDXXIXLDXIAQXKFIXXLIKGGPSSGAPPPS
modifications: Y-Aib-EGT-αMeF(2F)-TSD-4Pal-Aib-I-αMeL-LD-Orn-IAQ-Aib-K(2-[2-(2-Amino-ethoxy)-ethoxy]-acetyl)2-(γ-Glu)-(11-(4-carboxyphenoxy)undecanoyl)FI-(D-Glu)-αMeY-LIK((2-[2-(2-Amino-ethoxy)-ethoxy]-acetyl)2-(γ-Glu)-(11-(4-carboxyphenoxy)undecanoyl)GGPSSGAPPPS-NH2)
B2: Example 340 (peptide)
peptide: B1 peptide
modifications: Y-Aib-EGT-αMeF(2F)-TSD-4Pal-Aib-I-αMeL-LD-Orn-IAQ-Aib-K((2-[2-(2-Amino-ethoxy)-ethoxy]-acetyl)-(γ-Glu)-CO-(CH2)12-CO2H)FI-(D-Glu)-αMeY-LIK((2-[2-(2-Amino-ethoxy)-ethoxy]-acetyl)-(γ-Glu)-CO-(CH2)12-CO2H)GGPSSGAPPPS-NH2
B3: Example 337 (peptide)
peptide: B1 peptide with I17K, K21E
modifications: Y-Aib-EGT-αMeF(2F)-TSD-4Pal-Aib-I-αMeL-LD-Orn-K((2-[2-(2-Amino-ethoxy)-ethoxy]-acetyl)-(γ-Glu)-CO-(CH2)12-CO2H)AQ-Aib-EFI-(D-Glu)-αMeY-LIK((2-[2-(2-Amino-ethoxy)-ethoxy]-acetyl)-(γ-Glu)-CO-(CH2)12-CO2H)GGPSSGAPPPS-NH2
B4: Example 336 (peptide)
peptide: B1 peptide with I17K, K28E
modifications: Y-Aib-EGT-αMeF(2F)-TSD-4Pal-Aib-I-αMeL-LD-Orn-K((2-[2-(2-Amino-ethoxy)-ethoxy]-acetyl)-(γ-Glu)-CO-(CH2)12-CO2H)AQ-Aib-K((2-[2-(2-Amino-ethoxy)-ethoxy]-acetyl)-(γ-Glu)-CO-(CH2)12-CO2H)FI-(D-Glu)-αMeY-LIEGGPSSGAPPPS-NH2
B5: Example 326 (peptide)
peptide: Y[Aib]EGT[αMePhe(2-F)]TSDV[Aib]I[αMeL]LD[Orn]K([AEEA-AEEA-γGlu-Decanoyl(10-(4-HOOC-PhO))])AQ[Aib]EFI[dE][αMeY]LIK([AEEA-AEEA-γGlu-Decanoyl(10-(4-HOOC-PhO))])GGPSSGAPPPS-NH2
B6: Example 330 (peptide)
peptide: Y[Aib]EGT[αMePhe(2-F)]TSDV[Aib]I[αMeL]LD[Orn]IAQ[Aib]K([AEEA-AEEA-γGlu-Decanoyl(10-(4-HOOC-PhO))])FI[dE][αMeY]LIK([AEEA-AEEA-γGlu-Decanoyl(10-(4-HOOC-PhO))])GGPSSGAPPPS-NH2
B7: Example 325 (peptide)
peptide: Y[Aib]EGT[αMePhe(2-F)]TSDV[Aib]I[αMeL]LD[Orn]K([AEEA-AEEA-γGlu-C14 diacid])AQ[Aib]EFI[dE][αMeY]LIK([AEEA-AEEA-γGlu-C14 diacid])GGPSSGAPPPS-NH2
modifications: N-terminus assumed
SMILES: CC[C@H](C)[C@H](NC(=O)[C@H](CC(C)C)NC(=O)[C@](C)(Cc1ccc(O)cc1)NC(=O)[C@@H](CCC(=O)O)NC(=O)[C@@H](NC(=O)[C@H](Cc1ccccc1)NC(=O)[C@H](CCC(=O)O)NC(=O)C(C)(C)NC(=O)[C@H](CCC(N)=O)NC(=O)[C@H](C)NC(=O)[C@H](CCCCNC(=O)COCCOCCNC(=O)COCCOCCNC(=O)CC[C@H](NC(=O)CCCCCCCCCCCCC(=O)O)C(=O)O)NC(=O)[C@H](CCCN)NC(=O)[C@H](CC(=O)O)NC(=O)[C@H](CC(C)C)NC(=O)[C@](C)(CC(C)C)NC(=O)[C@@H](NC(=O)C(C)(C)NC(=O)[C@@H](NC(=O)[C@H](CC(=O)O)NC(=O)[C@H](CO)NC(=O)[C@@H](NC(=O)[C@](C)(Cc1ccccc1F)NC(=O)[C@@H](NC(=O)CNC(=O)[C@H](CCC(=O)O)NC(=O)C(C)(C)NC(=O)[C@@H](N)Cc1ccc(O)cc1)[C@@H](C)O)[C@@H](C)O)C(C)C)[C@@H](C)CC)[C@@H](C)CC)C(=O)N[C@@H](CCCCNC(=O)COCCOCCNC(=O)COCCOCCNC(=O)CC[C@H](NC(=O)CCCCCCCCCCCCC(=O)O)C(=O)O)C(=O)NCC(=O)NCC(=O)N1CCC[C@H]1C(=O)N[C@@H](CO)C(=O)N[C@@H](CO)C(=O)NCC(=O)N[C@@H](C)C(=O)N1CCC[C@H]1C(=O)N1CCC[C@H]1C(=O)N1CCC[C@H]1C(=O)N[C@@H](CO)C(N)=O
B8: Example 324 (peptide)
peptide: YXEGTXTSDXXIXLDXKAQXEFIXXLIEGGPSSGAPPPSK
modifications: Y-Aib-EGT-αMeF(2F)-TSD-4Pal-Aib-I-αMeL-LD-Orn-K((2-[2-(2-Amino-ethoxy)-ethoxy]-acetyl)2-(γ-Glu)-CO-(CH2)10-CH3)AQ-Aib-EFI-(D-Glu)-αMeY-LIEGGPSSGAPPPSK((2-[2-(2-Amino-ethoxy)-ethoxy]-acetyl)2-(γ-Glu)-CO-(CH2)10-CH3)-NH2
B9: Example 341 (peptide)
peptide: B8 peptide with K17I, E21K
modifications: Y-Aib-EGT-αMeF(2F)-TSD-4Pal-Aib-I-αMeL-LD-Orn-IAQ-Aib-K((2-[2-(2-Amino-ethoxy)-ethoxy]-acetyl)-(γ-Glu)-CO-(CH2)12-CO2H)FI-(D-Glu)-αMeY-LIEGGPSSGAPPPSK((2-[2-(2-Amino-ethoxy)-ethoxy]-acetyl)-(γ-Glu)-CO-(CH2)12-CO2H)-NH2
B10: Example 329 (peptide)
peptide: Y[Aib]EGT[αMePhe(2-F)]TSDV[Aib]I[αMeL]LD[Orn]IAQ[Aib]K([AEEA-AEEA-γGlu-C14 diacid])FI[dE][αMeY]LIK([AEEA-AEEA-γGlu-C14 diacid])GGPSSGAPPPS-NH2
modifications: N-terminus assumed
SMILES: CC[C@H](C)[C@H](NC(=O)[C@H](CCCN)NC(=O)[C@H](CC(=O)O)NC(=O)[C@H](CC(C)C)NC(=O)[C@](C)(CC(C)C)NC(=O)[C@@H](NC(=O)C(C)(C)NC(=O)[C@@H](NC(=O)[C@H](CC(=O)O)NC(=O)[C@H](CO)NC(=O)[C@@H](NC(=O)[C@](C)(Cc1ccccc1F)NC(=O)[C@@H](NC(=O)CNC(=O)[C@H](CCC(=O)O)NC(=O)C(C)(C)NC(=O)[C@@H](N)Cc1ccc(O)cc1)[C@@H](C)O)[C@@H](C)O)C(C)C)[C@@H](C)CC)C(=O)N[C@@H](C)C(=O)N[C@@H](CCC(N)=O)C(=O)NC(C)(C)C(=O)N[C@@H](CCCCNC(=O)COCCOCCNC(=O)COCCOCCNC(=O)CC[C@H](NC(=O)CCCCCCCCCCCCC(=O)O)C(=O)O)C(=O)N[C@@H](Cc1ccccc1)C(=O)N[C@H](C(=O)N[C@H](CCC(=O)O)C(=O)N[C@@](C)(Cc1ccc(O)cc1)C(=O)N[C@@H](CC(C)C)C(=O)N[C@H](C(=O)N[C@@H](CCCCNC(=O)COCCOCCNC(=O)COCCOCCNC(=O)CC[C@H](NC(=O)CCCCCCCCCCCCC(=O)O)C(=O)O)C(=O)NCC(=O)NCC(=O)N1CCC[C@H]1C(=O)N[C@@H](CO)C(=O)N[C@@H](CO)C(=O)NCC(=O)N[C@@H](C)C(=O)N1CCC[C@H]1C(=O)N1CCC[C@H]1C(=O)N1CCC[C@H]1C(=O)N[C@@H](CO)C(N)=O)[C@@H](C)CC)[C@@H](C)CC

Legend:
Test in all cases: cell-based or functional assay
hGLP-1R = hGLP-1R (Homo sapiens, UniProt P43220)
[1] = target: T1, human GIP receptor (human) (UniProt P48546)
T1 sequence (looked up): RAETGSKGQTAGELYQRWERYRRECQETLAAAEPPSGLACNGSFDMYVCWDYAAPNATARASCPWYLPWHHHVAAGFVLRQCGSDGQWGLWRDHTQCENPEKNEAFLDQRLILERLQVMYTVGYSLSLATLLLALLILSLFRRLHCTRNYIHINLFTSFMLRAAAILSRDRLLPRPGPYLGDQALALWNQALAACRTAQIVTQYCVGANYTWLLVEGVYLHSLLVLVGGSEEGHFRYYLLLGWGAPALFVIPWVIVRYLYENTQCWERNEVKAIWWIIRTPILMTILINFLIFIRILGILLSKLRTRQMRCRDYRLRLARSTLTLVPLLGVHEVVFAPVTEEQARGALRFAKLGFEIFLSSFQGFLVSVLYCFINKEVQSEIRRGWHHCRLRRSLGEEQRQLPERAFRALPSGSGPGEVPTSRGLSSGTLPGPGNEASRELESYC

[2] = target: human glucagon receptor (human) (UniProt P47871)
human glucagon receptor = human glucagon receptor (human, UniProt P47871 26-477)
human GLP-1 receptor = human GLP-1 receptor (human, UniProt P43220 24-463)
human GIP receptor = target: T2, human GIP receptor (human, UniProt P48546 22-466)
T2 sequence (looked up): T1 sequence (looked up)

Row | Binder | cAMP EC50 (hGLP-1R) | cAMP Emax (hGLP-1R) | cAMP EC50 [1] | cAMP Emax [1] | cAMP EC50 [2] | cAMP EC50 (1.0% HSA) (human glucagon receptor) | cAMP EC50 (1.0% HSA) (human GLP-1 receptor) | cAMP Emax (1.0% HSA) (human GLP-1 receptor) | cAMP EC50 (1.0% HSA) (human GIP receptor) | cAMP Emax (1.0% HSA) (human GIP receptor)
1 | B1 | 0.436 nM | 99.6% | 0.0113 nM | 101% | > 9950 nM | > 9950 nM | 223 nM | 114% | 8.31 nM | 
2 | B2 | 0.409 nM | 105% | 0.0206 nM | 95.2% | > 9950 nM | > 9950 nM | 122 nM | 112% | 9.91 nM | 87.9%
3 | B3 | 0.444 nM | 107% | 0.0151 nM | 103% | > 10100 nM | > 10100 nM | 53.6 nM |  | 2.65 nM | 
4 | B4 | 0.338 nM | 107% | 0.0136 nM | 109% | > 10100 nM | > 10100 nM | 47 nM | 103% | 2.92 nM | 
5 | B5 | 0.186 nM | 94.4% | 0.0338 nM | 102% | > 9950 nM | > 9950 nM | 26.1 nM | 96.1% | 4.62 nM | 88.7%
6 | B6 | 0.477 nM | 103% | 0.0185 nM | 112% | > 9950 nM | > 9950 nM | 85.2 nM | 85% | 6.26 nM | 103%
7 | B7 | 0.225 nM | 97.8% | 0.0485 nM | 104% | > 9950 nM | > 9950 nM | 23.5 nM | 98.4% | 3.96 nM | 94.7%
8 | B8 | 0.0647 nM | 97.6% | 0.00632 nM | 101% | > 9950 nM | > 9950 nM | 4.38 nM | 99.4% | 0.321 nM | 
9 | B9 | 0.329 nM | 99.9% | 0.0127 nM | 91.4% | > 9950 nM | > 9950 nM | 95.8 nM | 113% | 5.74 nM | 83.6%
10 | B10 | 0.353 nM | 104% | 0.015 nM | 109% | > 9950 nM | > 9950 nM | 74.7 nM | 88.3% | 5.44 nM | 100%
